OD450 nm data for ten molecules are collected here from patent US20260116991A1 (HAINAN SIMCERE ZAIMING PHARMACEUTICAL, published 2026).

Assay [1] addresses T1, polypeptide GC3pep (human).
T1 construct: also called membrane proximal polypeptide GC3pep
T1 peptide: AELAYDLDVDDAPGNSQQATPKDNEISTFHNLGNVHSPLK
Description: ELISA, GC3pep coated, antibody 0.1 nM.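 Note: antibody allowed to bind the coated plate 2 h at 37 °C, then detected via HRP-conjugated secondary antibody and TMB development for 10 min, stopped with HCl.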 For orientation: In an ELISA, binding on a coated surface is turned into a signal by an enzyme label.
Description: (§1) The plate was sealed with a plastic film and incubated at 4° C. overnight, washed twice with PBS the next day, and a blocking solution [PBS+2% (w/w) BSA] was added for blocking at room temperature for 2 h. […] After incubation at 37° C. for 2 h, the plate was washed 3 times with PBS. A horseradish peroxidase (HRP)-labeled secondary antibody (purchased from Merck, Cat. No. AP113P) was added for incubation at 37° C. for 1 h, and the plate was washed 5 times with PBS. A TMB substrate was added at 50 μL/well for incubation at room temperature for 10 min, then a stop solution (1.0M HCl) was added at 50 μL/well.

The target in assay [2] is T1, polypeptide GC3pep. The assay can be described thus: ELISA, GC3pep coated, antibody 0.0001 nM.
Assay [3] has as its target T1, polypeptide GC3pep. The assay can be described thus: ELISA, GC3pep coated, antibody 10 nM.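 Note: antibody bound to the coated peptide for 2 h at 37 °C, detected through an HRP-conjugated secondary antibody with TMB colour development stopped by acid.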
Description: as §1
Assay [4] concerns the target T1, polypeptide GC3pep. Description: ELISA, GC3pep coated, antibody 0.001 nM.
Assay [5] has as its target T1, polypeptide GC3pep. Description: ELISA, GC3pep coated, antibody 0.01 nM.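 Note: bound antibody detected with an HRP-conjugated secondary antibody and TMB substrate, color reaction stopped with HCl before reading absorbance.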
Assay [6] concerns the target T1, polypeptide GC3pep. The assay can be described thus: ELISA, GC3pep coated, antibody 100 nM.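 Note: detection with an HRP-conjugated secondary antibody and TMB substrate, color reaction stopped with HCl before absorbance reading.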
Description: as §1
For assay [7], the target named is T1, polypeptide GC3pep. Description: ELISA, GC3pep coated, antibody 1 nM.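 Note: bound antibody detected with an HRP-conjugated secondary antibody and TMB substrate, reaction stopped with HCl, after 2 h binding at 37 °C.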
Description: as §1

B1: F1.110.24 (antibody, human IgG1, kappa, V domains shown)
VH: EVKLVESGGGLVQPGGSLKLSCAASGFTFSDFYMYWVRQTPEKRLEWVAFISNGGGSTYYPDTVKGRFTISRDNVKNTLYLQMSRLKSEDTAMYYCARPDTSWFAYWGQGSLVTVSA
VL: DIQMTQTTSSLSASLGDRVTISCRASQDIDNYLNWYQQKPDGTVKVLISYTSRLHSGVPSRFSGSGSGTDYSLTISNLEQEDIATYFCQQGNTLPWTFGGGTKLEIKR
notes: human-murine chimeric antibody
As for B1, the OD450 nm in assay [1] was 0.05 OD450 nm; in assay [2], 0.04 OD450 nm; in assay [3] it was 0.07 OD450 nm; in assay [4], 0.05 OD450 nm; in assay [5], 0.05 OD450 nm; in assay [6] it was 0.06 OD450 nm. This molecule also returned an OD450 nm in assay [7] of 0.04 OD450 nm.

B2: F1.78.24 (antibody, human IgG1, kappa, V domains shown)
VH: QVQLQQSGAELVKPGASVKMSCKASGYTFTTYPIEWMKQNHGKSLEWIGNFHPYNDDTNYNVKFKGKATLTVEKSSSTVYLELSRLTSDDSALYYCARRREYYGSFDVWGTGTTVTVSS
VL: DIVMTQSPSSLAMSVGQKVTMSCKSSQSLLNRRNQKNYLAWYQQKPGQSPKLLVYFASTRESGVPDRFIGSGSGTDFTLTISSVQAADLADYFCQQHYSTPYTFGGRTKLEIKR
notes: as for B1
Consider B2, for which the OD450 nm in assay [1] was determined as 0.05 OD450 nm; in assay [2], 0.05 OD450 nm; in assay [3], 0.05 OD450 nm; in assay [4] it was 0.05 OD450 nm; in assay [5], 0.05 OD450 nm; in assay [6] it was 0.06 OD450 nm. In assay [7], this molecule registered an OD450 nm of 0.05 OD450 nm.

B3: F1.120.16 (antibody, human IgG1, kappa, V domains shown)
VH: EFQLQQSGPELVKPGASVKISCKASGYSFTDYNMNWVKQSNGKSLEWIGLIHPKFSVTSYNRKFKGKATLTVDQSSSTAYMQLNSLTSEDSAVYYCARWAGDYFDYWGQGTTLTVSS
VL: DIVLTQSPATLSVTPGDSVSLSCRASQSISNNLHWYQQKSHESPRLLIKYASQSISGIPSRFSGSGSGTDFTLTINSVETEDFGMYFCQQSNSWPQTFGGGTKLEIKR
notes: as for B1
On to B3, for which the OD450 nm in assay [1] was 0.04 OD450 nm; in assay [2], 0.05 OD450 nm; in assay [3] it was 0.06 OD450 nm; in assay [4], 0.04 OD450 nm; in assay [5], 0.04 OD450 nm; in assay [6], 0.08 OD450 nm. The OD450 nm in assay [7] was 0.04 OD450 nm.

B4: F1.92.17 (antibody, human IgG1, kappa, V domains shown)
VH: EVQLQQSGPELVKPGASVKMSCKASGYTFTDYNMHWVRQSHGKSLEWIGYINPNNGDTIYNQNFKGKATLTVNKSSSTAYMELRSLTSEDSAVYYCSRTITYYYSMDYWGPGTSVTVSS
VL: QIVLTQSPALMSASPGEKVTMTCSASSSVSYMYWYQQKPRSSPKPWIYLTSNLASGVPARFSGSGSGTSYSLTISSMEAEDAATYYCQQWSSNPLTFGAGTKLELKR
notes: as for B1
For the molecule B4, the OD450 nm in assay [1] is 0.06 OD450 nm; in assay [2] it was 0.05 OD450 nm; in assay [3], 0.06 OD450 nm; in assay [4], 0.05 OD450 nm; in assay [5], 0.05 OD450 nm; in assay [6] it was 0.1 OD450 nm. The molecule also gave an OD450 nm in assay [7] of 0.05 OD450 nm.

B5: F1.57.21 (antibody, human IgG1, kappa, V domains shown)
VH: QVQLQQSGAELARPGASVKLSCKASGYTFTSYGISWVKQITGQGLEWIGEIYPRSESTYYNEKFKGKATLTADKSSSTAYMELRSLTSEDSAVYFCARDYGNIYSFAYWGQGTLVTVSA
VL: DIQMTQSPASLSASVGETVTITCRTSENIYSYLAWYQQKQGKSPQLLVYNAKTLAEGVPSRFSGSGSGTQFSLKINSLQPEDFGSYYCQHHYGTPLTFGAGTKLELKR
notes: as for B1
With B5, the OD450 nm turned out to be 0.05 OD450 nm in assay [1]; 0.05 OD450 nm in assay [2]; 0.05 OD450 nm in assay [3]; 0.05 OD450 nm in assay [4]; 0.05 OD450 nm in assay [5]; 0.06 OD450 nm in assay [6]. In assay [7], this molecule had an OD450 nm of 0.05 OD450 nm.

B6: F1.115.8 (antibody, human IgG1, kappa, V domains shown)
VH: EVQLQQSGPELVKPGASVKMSCKASGYTFTEYYMHWVKQSHGKSLEWIGYIYPNNGGNGYNQKFKGKATLTVDKSSSTAYMGLRSLTSEDSAVYYCVRGYYSNWYFDVWGTGTTVTVSS
VL: DVLMTQTPLSLPVSLGDQASISCRSSQSIVHSNGKTYLEWYLQKPGQSPKLLIYKVSNRFSGVPDRFSGSGSGTDFTLKISRVEAEDLGVYYCFQGSHVPFTFGSGTKLEIKR
notes: as for B1
Take B6: the OD450 nm is 0.05 OD450 nm in assay [1]; 0.05 OD450 nm in assay [2]; 0.05 OD450 nm in assay [3]; 0.05 OD450 nm in assay [4]; 0.04 OD450 nm in assay [5]; 0.1 OD450 nm in assay [6]. Besides, the OD450 nm in assay [7] was 0.08 OD450 nm.

B7: F1.42.8 (antibody, human IgG1, kappa, V domains shown)
VH: HVQLQQPGAELVKPGASVKLSCKASGYTFTSYWMHWVRQRPGQGLEWIEMIHPNSGSTNYNEKFKSKATLTVDKSSSTAYMQLSSLTSEDSAVYYCARGNYNSSLYAMDYWGQGTSVTVSS
VL: DIQMTQTTSSLSASLGDRVTISCSASQGISNYLNWYQQKPDGTVKLLIYYASNLHSGVPSRFSGSGSGTAYSLTISNLEPEDIATYYCQQYSILPYTFGGGTKLEIKR
notes: as for B1
For B7, the OD450 nm in assay [1] was 0.05 OD450 nm; in assay [2] it was 0.05 OD450 nm; in assay [3], 0.05 OD450 nm; in assay [4], 0.05 OD450 nm; in assay [5], 0.05 OD450 nm; in assay [6], 0.06 OD450 nm. The OD450 nm in assay [7] worked out at 0.05 OD450 nm.

B8: F1.73.9 (antibody, human IgG1, kappa, V domains shown)
VH: QVQLKQSGAELVRPGASVKLSCKASGYTFTDYYINWVKQRPGQGLEWIARIYPGSGNTYYNEKFKGKATLTAEKSSSTAYMQFSSLTSEDSAVYFCACSTYYTMDYWGQGTSVTVSS
VL: QIVLTQSPAIMSASLGERVTMTCTASSGVSSSYLHWYQQKPGSSPKLWIYTTSNLASGVPARFSGSGSGTSYSLTISSMEAEDAATYYCHQYHRSPYTFGGGTKLEIKR
notes: as for B1
With B8, the OD450 nm in assay [1] is 0.05 OD450 nm; in assay [2], 0.04 OD450 nm; in assay [3], 0.05 OD450 nm; in assay [4], 0.05 OD450 nm; in assay [5], 0.05 OD450 nm; in assay [6], 0.09 OD450 nm. The molecule also came in with an OD450 nm in assay [7] of 0.05 OD450 nm.

B9: F1.118.4 (antibody, human IgG1, kappa, V domains shown)
VH: QVQLQQSGAELAKPGASVKLSCKASGYSFTSYWIHWVKQRPGQGLEWIGYINPSSGYTKYNQKFKDKATLTADKSSSTAYMQLSSLTYEDSAVYYCARFGSSSFYFDYWGQGTTLTVSS
VL: DIVLTQSPASLAVSLGQRATISCRASQSVSSSSYSYMHWYQQKPGQPPKLLIKYASNLDSGVPARFSGSGSGTDFTLNIHPVEEEDTATYYCQHSWEIPAFGGGTKLEIKR
notes: as for B1
Take B9: the OD450 nm in assay [1] came out at 0.04 OD450 nm; in assay [2], 0.05 OD450 nm; in assay [3], 0.05 OD450 nm; in assay [4], 0.04 OD450 nm; in assay [5], 0.04 OD450 nm; in assay [6], 0.06 OD450 nm. The molecule also registered an OD450 nm in assay [7] of 0.04 OD450 nm.

B10: F1.83.6 (antibody, human IgG1, kappa, V domains shown)
VH: QVQLQQSGPELVKPGASVKISCKASGYAFSSSWMNWVKQRPGKGLEWIGRIYPGDGDTNYNGRFKGKATLTVDKSSSTAYMQLSSLTSEDSAVYFCARGGVFTMALDHWGQGTTLTVSS
VL: DIQMTQSPSSLSASLGGKVTITCKASQDINKYIAWYQHKPGKGPRLLIHYTSTLQPGIPSRFSGSGSGRDYSFSISNLEPEDIATYYCLQYDNLFTFGGGTKLEIKR
notes: as for B1
B10: the OD450 nm in assay [1] stood at 0.05 OD450 nm; in assay [2], 0.04 OD450 nm; in assay [3], 0.06 OD450 nm; in assay [4], 0.05 OD450 nm; in assay [5], 0.05 OD450 nm; in assay [6], 0.07 OD450 nm. In assay [7], this molecule showed an OD450 nm of 0.05 OD450 nm.
